We go through one substance from paper PMC8213705.

Experiment [1] has as its target Microtubule polymerized from MAP-free bovine brain tubulin (GMPCPP- and taxol-stabilized, with biotinylated ends) (bovine) (UniProt Q6B856). The experiment can be described thus: optical trapping (single-filament interaction forces); pure CB; microtubule turned by 45°, IF moved vertically; 49 filament pairs.
Experiment [2] shares this target. The experiment can be described thus: optical trapping (single-filament interaction forces); as a1 (perpendicular, vertical movement) in CB with 0.1% (w/v) Triton-X 100; 38 filament pairs.
Experiment [3] has the same target. Put plainly: optical trapping (single-filament interaction forces); as a1 (perpendicular, vertical movement) in CB with a total of 20 mM magnesium (18 mM MgCl2 added); 36 filament pairs.
For experiment [4] the target is unchanged. The experiment can be described thus: optical trapping (single-filament interaction forces); pure CB; perpendicular configuration, IF moved horizontally (x-direction) along the microtubule at 0.55 μm/s; 43 filament pairs.
The target is the same in experiment [5]. The experiment can be described thus: optical trapping (single-filament interaction forces); one vimentin IF and one microtubule each held between a pair of streptavidin beads; crossed perpendicularly, IF moved vertically (y-direction) at 0.55 μm/s; pure CB (1 mM EGTA, 2 mM MgCl2, 25 mM PIPES, 60 mM KCl, 2 mM sodium phosphate, pH 7.5, 0.01 mM taxol, oxygen scavenger, 20 mM DTT); 57 filament pairs.

Sequence of UniProt Q6B856 (Q6B856 whole entry, looked up): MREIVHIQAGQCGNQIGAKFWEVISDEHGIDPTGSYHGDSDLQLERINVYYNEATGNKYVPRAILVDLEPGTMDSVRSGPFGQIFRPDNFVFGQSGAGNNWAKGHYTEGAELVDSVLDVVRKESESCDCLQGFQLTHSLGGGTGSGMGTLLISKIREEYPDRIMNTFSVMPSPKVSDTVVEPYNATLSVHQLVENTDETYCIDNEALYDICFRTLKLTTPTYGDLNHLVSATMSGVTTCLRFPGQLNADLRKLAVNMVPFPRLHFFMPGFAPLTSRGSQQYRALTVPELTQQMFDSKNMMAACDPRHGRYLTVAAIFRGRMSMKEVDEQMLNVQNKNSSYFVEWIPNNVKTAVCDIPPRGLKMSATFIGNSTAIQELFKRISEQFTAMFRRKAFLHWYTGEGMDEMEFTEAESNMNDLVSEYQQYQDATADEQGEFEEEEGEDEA

Take “Vimentin intermediate filament, assembled from vimentin C328N with two additional glycines and one additional cysteine at the C-terminus (natural protein)”: the effective binding rate r b,eff (interactions larger than 1 pN per unbound time) is 0.016 s⁻¹ in experiment [1]; 0.0056 s⁻¹ in experiment [2]; 0.013 s⁻¹ in experiment [3]; 0.024 s⁻¹ in experiment [4]; 0.011 s⁻¹ in experiment [5]. The probability of binding p IF-MT per pair of vimentin unit-length filament and tubulin dimer in experiment [5] (scale: per pair of vimentin unit-length filament and tubulin dimer) turned out to be 0.00061.
